The text below walks through data of paper PMC10172140.

One experiment deals with KOR R156^3.50A (human) (UniProt P41145).
For experiment [1], the target named is κ-opioid receptor in homogenous membrane fractions expressing KOR (human) (UniProt P41145).
In experiment [2] the target is BRIL-wt-KOR(54–368) reconstituted into nanodiscs (human) (UniProt P41145).
The target of a further experiment is KOR N336^8.49A (human) (UniProt P41145).

In the experiment with KOR R156^3.50A (human), “wild-type Gg (gustducin) heterotrimeric G protein (from UniProt A8MTJ3 1-354; P62873 1-340; P59768 1-71) (complex)” came in with an efficacy of GR89,696-mediated Gg activation, BRET2, normalized to U50,488 of 46% and an efficacy of momSalB-mediated Gg activation, BRET2, normalized to U50,488 of 38%. In experiment [1], this substance displayed an efficacy of GR89,696-mediated Gg activation, BRET2, normalized to U50,488 of 103% and an efficacy of momSalB-mediated Gg activation, BRET2, normalized to U50,488 of 106%. The substance also yielded a fold increase of the high-affinity binding sites (Bmax) for the agonist radioligand ^3H-U69,593 in saturation binding, with 1 μM G protein against KOR alone in experiment [2] of 7 fold.

Substance “wild-type Gi1 heterotrimeric G protein (from UniProt P63096 1-354; P62873 1-340; P59768 1-71) (complex)” registered a loss in potency of agonist-mediated Gi1 coupling against wild-type KOR, BRET2 with KOR N336^8.49A (human) of 2 fold. Moreover, the fold increase of the high-affinity binding sites (Bmax) for the agonist radioligand ^3H-U69,593 in saturation binding, with 1 μM G protein against KOR alone in experiment [2] turned out to be 62 fold.

Take “wild-type GoA heterotrimeric G protein (from UniProt P09471 1-354; P62873 1-340; P59768 1-71) (complex)”: in the experiment with KOR N336^8.49A (human), the loss in potency of agonist-mediated GoA coupling against wild-type KOR, BRET2 was 14 fold. Also, the fold increase of the high-affinity binding sites (Bmax) for the agonist radioligand ^3H-U69,593 in saturation binding, with 1 μM G protein against KOR alone in experiment [2] amounted to 38 fold.

On to “wild-type Gz heterotrimeric G protein (from UniProt P19086 1-355; P62873 1-340; P59768 1-71) (complex)”, for which the loss in potency of agonist-mediated Gz coupling against wild-type KOR, BRET2 with KOR N336^8.49A (human) was determined as 9 fold. This substance also registered a fold increase of the high-affinity binding sites (Bmax) for the agonist radioligand ^3H-U69,593 in saturation binding, with 1 μM G protein against KOR alone in experiment [2] of 14 fold.
